Experimental data from publication PMC7961048, “Hierarchized phosphotarget binding by the seven human 14-3-3 isoforms” (Nature Communications, 2021).
No end group written: not given here.

Tests used:
Experiment in all cases: fluorescence polarisation
Details in all cases: both partners purified
[1] = biological target: T1, full-length human 14-3-3β fused to the C terminus of MBP (human, UniProt P31946 1-246)
T1 construct: not shown: MBP (crystallisable mutant), N-terminal, kept
T1 sequence (looked up): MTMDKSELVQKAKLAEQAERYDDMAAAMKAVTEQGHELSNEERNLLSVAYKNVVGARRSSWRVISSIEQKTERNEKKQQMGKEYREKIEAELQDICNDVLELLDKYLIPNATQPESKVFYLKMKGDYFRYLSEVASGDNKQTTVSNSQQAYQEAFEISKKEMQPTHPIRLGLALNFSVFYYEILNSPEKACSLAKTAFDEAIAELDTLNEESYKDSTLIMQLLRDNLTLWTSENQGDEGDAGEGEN

[2] = biological target: T2, full-length human 14-3-3γ fused to the C terminus of MBP (human, UniProt P61981 1-247)
T2 construct: not shown: MBP (crystallisable mutant), N-terminal, kept
T2 sequence (looked up): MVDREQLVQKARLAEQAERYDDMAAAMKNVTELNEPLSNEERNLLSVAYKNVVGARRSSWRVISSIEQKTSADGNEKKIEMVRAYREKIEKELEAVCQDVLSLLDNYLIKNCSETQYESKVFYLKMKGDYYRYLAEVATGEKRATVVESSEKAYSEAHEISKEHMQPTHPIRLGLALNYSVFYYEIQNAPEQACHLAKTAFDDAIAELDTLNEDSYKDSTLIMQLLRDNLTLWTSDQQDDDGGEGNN

[3] = biological target: T3, full-length human 14-3-3ε fused to the C terminus of MBP (human, UniProt P62258 1-255)
T3 construct: not shown: MBP (crystallisable mutant), N-terminal, kept
T3 sequence (looked up): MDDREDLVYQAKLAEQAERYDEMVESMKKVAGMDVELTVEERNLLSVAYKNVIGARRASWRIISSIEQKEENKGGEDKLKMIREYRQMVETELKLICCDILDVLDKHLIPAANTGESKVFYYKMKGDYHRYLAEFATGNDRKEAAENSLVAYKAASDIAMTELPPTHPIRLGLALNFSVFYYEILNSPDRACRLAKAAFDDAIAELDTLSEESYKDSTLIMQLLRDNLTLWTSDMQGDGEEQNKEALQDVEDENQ

[4] = biological target: T4, full-length human 14-3-3ζ fused to the C terminus of MBP (human, UniProt P63104 1-245)
T4 construct: not shown: MBP (crystallisable mutant), N-terminal, kept
T4 sequence (looked up): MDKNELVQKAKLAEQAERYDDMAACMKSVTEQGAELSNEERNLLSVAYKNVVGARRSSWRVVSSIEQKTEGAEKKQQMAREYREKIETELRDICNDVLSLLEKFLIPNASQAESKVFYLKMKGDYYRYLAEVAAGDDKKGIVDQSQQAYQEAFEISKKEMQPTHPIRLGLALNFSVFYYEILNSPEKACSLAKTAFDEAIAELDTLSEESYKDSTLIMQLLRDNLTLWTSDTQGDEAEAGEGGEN

[5] = biological target: T5, full-length human 14-3-3η fused to the C terminus of MBP (human, UniProt Q04917 1-246)
T5 construct: not shown: MBP (crystallisable mutant), N-terminal, kept
T5 sequence (looked up): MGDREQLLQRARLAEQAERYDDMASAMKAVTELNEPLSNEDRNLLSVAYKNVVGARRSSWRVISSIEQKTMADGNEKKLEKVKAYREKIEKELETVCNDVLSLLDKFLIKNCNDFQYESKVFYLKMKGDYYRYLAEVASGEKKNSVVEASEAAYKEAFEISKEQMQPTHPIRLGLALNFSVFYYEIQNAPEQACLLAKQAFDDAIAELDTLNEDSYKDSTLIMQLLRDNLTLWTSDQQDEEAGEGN

[6] = biological target: T6, full-length human 14-3-3σ fused to the C terminus of MBP (human, UniProt P31947 1-248)
T6 construct: not shown: MBP (crystallisable mutant), N-terminal, kept
T6 sequence (looked up): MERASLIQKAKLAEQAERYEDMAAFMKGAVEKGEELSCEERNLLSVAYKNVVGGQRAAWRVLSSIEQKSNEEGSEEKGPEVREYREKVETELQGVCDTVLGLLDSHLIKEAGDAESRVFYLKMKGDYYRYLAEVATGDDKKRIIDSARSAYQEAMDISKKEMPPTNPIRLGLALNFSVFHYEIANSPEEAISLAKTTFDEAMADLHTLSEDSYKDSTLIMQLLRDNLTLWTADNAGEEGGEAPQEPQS

[7] = biological target: T7, full-length human 14-3-3τ fused to the C terminus of MBP (human, UniProt P27348 1-245)
T7 construct: not shown: MBP (crystallisable mutant), N-terminal, kept
T7 sequence (looked up): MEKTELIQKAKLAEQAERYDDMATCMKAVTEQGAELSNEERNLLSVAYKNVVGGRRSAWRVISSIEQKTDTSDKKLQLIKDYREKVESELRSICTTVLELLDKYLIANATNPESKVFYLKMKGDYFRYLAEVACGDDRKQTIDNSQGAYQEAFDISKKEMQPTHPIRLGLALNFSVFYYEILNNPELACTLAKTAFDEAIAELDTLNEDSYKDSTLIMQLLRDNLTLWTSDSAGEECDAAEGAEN

Measured: binding result

B1: fluorescently labeled HSPB6 phosphopeptide (fpB6) (peptide)
peptide: WLRRASAPLPGLK
modifications: also: phosphorylation, site not given here, fluorescent label, unspecified
notes: also called FITC-labeled HSPB6 phosphopeptide; tracer; source: synthetic peptide, amino-terminal FITC labeling
binds: [1] | [2] | [3] | [4] | [5] | [6] | [7]

B2: RSK1 phospho-PBM peptide RSK1_-2P (peptide)
peptide: RRVRKLPSTTL
modifications: not fully specified (residue 9)
notes: source: synthetic peptide (in-house, Fmoc)
binds: [1] | [2] | [3] | [4] | [5] | [6] | [7]

B3: RSK1 phospho-PBM peptide RSK1_-1P (peptide)
peptide: RRVRKLPSTTL
modifications: not fully specified (residue 10)
notes: as for B2
binds: [1] | [2] | [3] | [4] | [5] | [6] | [7]
